Results: patent publication US20180298051A1 (Scripps Research, published 2018)
Ends that are not written are not given here.

Target: T1, RXFP1 on RXFP1 CRE-Bla cells (human, UniProt Q9HBX9 1-757)
T1 sequence (looked up): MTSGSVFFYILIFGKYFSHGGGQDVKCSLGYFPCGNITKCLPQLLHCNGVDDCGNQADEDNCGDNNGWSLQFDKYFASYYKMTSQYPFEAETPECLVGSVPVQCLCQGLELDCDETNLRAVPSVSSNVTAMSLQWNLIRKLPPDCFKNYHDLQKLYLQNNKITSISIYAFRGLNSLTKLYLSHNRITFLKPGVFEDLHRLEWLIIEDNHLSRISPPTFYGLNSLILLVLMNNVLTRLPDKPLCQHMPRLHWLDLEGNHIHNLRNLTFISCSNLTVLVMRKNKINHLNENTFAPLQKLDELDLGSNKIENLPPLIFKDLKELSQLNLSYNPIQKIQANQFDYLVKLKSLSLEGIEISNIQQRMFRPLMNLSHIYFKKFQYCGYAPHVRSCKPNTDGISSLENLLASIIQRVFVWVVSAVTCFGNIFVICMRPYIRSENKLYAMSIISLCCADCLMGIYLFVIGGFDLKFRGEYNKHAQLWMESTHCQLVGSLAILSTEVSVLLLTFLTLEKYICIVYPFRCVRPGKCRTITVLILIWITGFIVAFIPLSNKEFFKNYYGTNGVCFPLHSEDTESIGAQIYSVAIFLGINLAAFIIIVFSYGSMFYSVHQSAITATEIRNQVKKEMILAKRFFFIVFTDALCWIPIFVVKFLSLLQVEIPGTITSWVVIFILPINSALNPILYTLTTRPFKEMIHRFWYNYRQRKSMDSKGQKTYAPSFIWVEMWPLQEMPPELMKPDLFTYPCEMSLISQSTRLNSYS
Experiment: cell-based or functional assay

EC50, in vitro FRET assay, RXFP1 CRE-Bla cells: 4.9 nM
B1: relaxin-H2 protein (R&D Systems) (ligand)
chain 1: QLYSALANKCCHVGCTKRSLARFC
chain 2: DSWMEEVIKLCGRELVRAQIAICGMSTWS
modifications: disulfide (positions not given here); ends not checked; also: three disulfides: two between A and B chains, one within A chain, pairings not given here
